Measurements from US20220169699A1 (published 2022).

How the values were obtained:
[1] = target: murine PD-1-transmembrane PD-1-CD28 fusion protein (PTM) (murine); assay: cell-based or functional assay
[2] = target: T1, recombinant murine PD-L1 Fc chimera (R&D Systems) (murine, UniProt Q9EP73 19-238); assay: flow cytometry; transduced murine T cells incubated with recombinant PD-L1-Fc
T1 construct: also called recombinant PD-L1; recombinant PD-L1-Fc; not shown: Fc part of the bought R&D Systems chimera (detected with anti-human IgG)
T1 sequence (Q9EP73 19-238, change not shown): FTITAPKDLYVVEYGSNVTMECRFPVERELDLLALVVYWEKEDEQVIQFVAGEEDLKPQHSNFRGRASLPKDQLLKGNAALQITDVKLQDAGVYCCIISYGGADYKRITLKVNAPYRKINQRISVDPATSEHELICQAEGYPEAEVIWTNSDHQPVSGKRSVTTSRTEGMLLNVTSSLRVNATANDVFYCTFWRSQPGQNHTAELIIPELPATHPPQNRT

## full length murine PD-L1 on Panc02-OVA-PD-L1 tumor cells (from UniProt Q9EP73 19-290) (ligand)
[1]
  IFN-γ release in coculture of PTM-transduced OT-1 T cells with tumor cells: 545 ng/mL

B1: murine PD-1-transmembrane PD-1-CD28 fusion protein (PTM) (receptor)
chain: LEVPNGPWRSLTFYPAWLTVSEGANATFTCSLSNWSEDLMLNWNRLSPSNQTEKQAAFCNGLSQPVQDARFQIIQLPNRHDFHMNILDTRRNDSGIYLCGAISLHPKAKIEESPGAELVVTERILETSTRYPSPSPKPEGRFQGMVIGIMSALVGIPVLLLLAWALNSRRNRLLQSDYMNMTPRRPGLTRKPYQPYAPARDFAAYRP
notes: Expressed on retrovirally transduced primary murine T cells; The entry starts at PD-1 residue 1, so it includes the signal peptide; also called mPTM; PTM fusion protein
[2]
  binding result: binds
